The series deals with anti-MPT64 antibody (purified rabbit antibody to recombinant M. tuberculosis H37Rv MPT64) (rabbit). Briefly: ELISA. The conditions noted are these: 20 mM Hepes pH 7.35, 120 mM KCl, 1 mM CaCl2, 1 mM MgCl2 ([…]. (In general: An ELISA detects its analyte on a solid surface through an enzyme-linked reagent.)

For the sequence “GGGAGCTCAGAATAAACGCTCAAAAACGCTCAAGAGGCCCGGATCTTCGACATGAGGCCCGGATC [MPT64-A1]”, the binding signal amounted to 1.62 OD450.

The values above are taken from article PMC3410803.
